We go through one substance from article PMC5763331.

The test has as its target PROTEOLYSIS1 (PRT1) (Arabidopsis thaliana) (UniProt Q8LBL5).

Sequence of PROTEOLYSIS1 (PRT1) (Arabidopsis thaliana) (Q8LBL5 whole entry): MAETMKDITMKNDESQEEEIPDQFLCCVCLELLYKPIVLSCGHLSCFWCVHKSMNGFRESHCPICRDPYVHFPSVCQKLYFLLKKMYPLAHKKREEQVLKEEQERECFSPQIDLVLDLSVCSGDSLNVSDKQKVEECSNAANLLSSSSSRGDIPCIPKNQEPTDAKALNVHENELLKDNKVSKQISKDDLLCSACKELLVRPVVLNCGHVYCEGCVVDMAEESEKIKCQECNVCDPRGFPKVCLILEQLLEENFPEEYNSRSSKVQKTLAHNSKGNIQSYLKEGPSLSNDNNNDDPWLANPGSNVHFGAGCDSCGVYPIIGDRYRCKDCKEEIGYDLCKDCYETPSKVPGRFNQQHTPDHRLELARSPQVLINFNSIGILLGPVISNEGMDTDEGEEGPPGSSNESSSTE
Sequence of E2-conjugating enzyme UBC8 (P35131 whole entry): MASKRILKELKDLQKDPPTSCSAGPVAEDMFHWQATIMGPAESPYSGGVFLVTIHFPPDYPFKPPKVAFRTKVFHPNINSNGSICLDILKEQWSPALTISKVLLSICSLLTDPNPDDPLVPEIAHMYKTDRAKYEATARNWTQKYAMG

“E2-conjugating enzyme UBC8 (from UniProt P35131 1-148)” returned a Michaelis-Menten constant (K M) of substrate ubiquitination by PRT1 at different E2 concentrations (fluorescence polarization of the F-eK-Flv-NBD substrate, UBC8 up to 2 μM) of 0.08 µM.
